How the values were obtained:
[1] = test system: PIN-XTEN-dCas9-2xNLS (Streptococcus pyogenes); assay: cell_activity; settings: no PAMmer, Northern dot blot; full-length Cas9 gave >95% loss in FIG. 8C
[2] = test system: PIN-dCas9 deltaHNH del775-909 (Streptococcus pyogenes); assay: cell_activity; settings: COSM6, Northern blot

**Q.** What does the source list for “CUG repeat-targeting sgRNA ; CUG repeat RNA”?
**A.** activity (% RNA remaining) [1]: 35; activity [2]: > 95 % RNA loss

— US20200239863
